Test results taken from patent publication US20230084099A1 (NATIONAL UNIVERSITY CORPORATION TOKAI NATIONAL HIGHER …, published 2023).

T1: human MEFLIN protein (human, UniProt O14498 19-428, limits assumed)
T1 construct: In the Western blot the protein and its fragments carried a C-terminal G196 tag and His tag and were expressed in HEK293 cells; also called hMEFLIN; ISLR
T1 sequence (looked up): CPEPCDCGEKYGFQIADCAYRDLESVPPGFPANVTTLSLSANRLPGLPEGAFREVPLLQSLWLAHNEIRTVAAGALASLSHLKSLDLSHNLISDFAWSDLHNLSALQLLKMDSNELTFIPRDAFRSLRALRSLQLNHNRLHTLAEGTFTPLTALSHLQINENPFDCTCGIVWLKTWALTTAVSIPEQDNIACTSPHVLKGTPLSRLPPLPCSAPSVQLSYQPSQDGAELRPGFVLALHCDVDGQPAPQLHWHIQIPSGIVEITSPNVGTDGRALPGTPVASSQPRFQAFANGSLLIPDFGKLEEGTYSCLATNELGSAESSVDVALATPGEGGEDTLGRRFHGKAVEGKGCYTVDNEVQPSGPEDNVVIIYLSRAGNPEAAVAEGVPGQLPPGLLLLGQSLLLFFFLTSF

T2: human MEFLIN expressed on cells (human, UniProt O14498 19-428)
T2 sequence (looked up): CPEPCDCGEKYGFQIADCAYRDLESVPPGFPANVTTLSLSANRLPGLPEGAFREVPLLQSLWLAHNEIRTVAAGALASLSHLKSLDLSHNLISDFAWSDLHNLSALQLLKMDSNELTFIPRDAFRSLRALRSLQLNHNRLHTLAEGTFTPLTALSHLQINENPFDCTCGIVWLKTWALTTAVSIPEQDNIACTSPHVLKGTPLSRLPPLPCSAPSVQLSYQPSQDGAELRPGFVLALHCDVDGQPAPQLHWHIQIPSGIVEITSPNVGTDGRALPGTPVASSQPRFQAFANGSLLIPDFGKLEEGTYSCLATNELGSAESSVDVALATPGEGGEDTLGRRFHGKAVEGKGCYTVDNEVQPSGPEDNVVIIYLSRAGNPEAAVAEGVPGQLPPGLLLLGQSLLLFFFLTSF


Target: T1, human MEFLIN protein
Test: Western blotting on tagged human MEFLIN fragments
Experimental: The human embryonic kidney (HEK293) cell line was allowed to transiently express pRP-CMV vector having an insert of DNA encoding the human MEFLIN protein or a fragment thereof by lipofection, and a cell lysate was prepared. […] SDS-PAGE was performed using the cell lysate, and the electrophoresed protein was transferred to a PVDF membrane. The PVDF membrane was reacted at ordinary temperature for 1 hour using 5% skimmed milk/PBS. The primary antibody used was a culture supernatant of each hybridoma clone diluted 50-fold with PBS. For a positive subject, an anti-G196 antibody was used as a primary antibody. The PVDF membrane was reacted overnight at 4° C. in the presence of the primary antibody. Then, the PVDF membrane was washed with 0.05% Tween/PBS. The secondary antibody used was an anti-rat or anti-mouse antibody-horseradish peroxidase (HRP) conjugate. The secondary antibody was diluted 1000-fold with PBS and reacted with the PVDF membrane at ordinary temperature for 45 minutes. After washing with 0.05% Tween/PBS, the HRP label on the antibody was allowed to emit light using ECL (GE Healthcare Japan Corp.), and an image was captured into a computer using a CCD imager (Las 4000, GE Healthcare Japan Corp.).

Binder | binding result
27-8 antibody (antibody, V domains shown, Rat hybridoma monoclonal antibody; used as hybridoma culture supernatant; also called clone 27-8) VH: VQLTESGPGLVKPSQSLSLTCSVTGYTITSGYDWSWIRKFPGNKMEWMGYITYSGSTNYNPSLKSRISITRDTSKNQFFLQLNSVTTEDTATYYCSRDIAAISFAYWGQGTLVTVSS VL: DVVMTQTPVAQPVTLGDQASISCRSSQSLVHSNGNTYLEWYLQKPGQSPQLLIYKVSNRFSGVPDRFIGSGSGSDFTLKISRVEPEDLGVYYCFQATHVPLTFGSGTKLEIK | binds
46-3 antibody (antibody, V domains shown, Rat hybridoma monoclonal antibody; used as hybridoma culture supernatant; also called clone 46-3) VH: VQLKESGPGLVKPSQSLSLTCSVTGYTITSGYDWSWIRKFPGNKMEWMGFITYSGSTHHNPSLKSRISITRDTSRNQFFLQLNSVTTEDSATYYCARDFSGISFAYWGQGTLVSVSS VL: DVVLTQTPVAQPVTLGDQVSISCRSSQSLVHSNGNTYLEWYLQKPGQSPQLLIYKVSNRFSGVPDRFIGSGSGSDFTLKISRVEPEDLGIYYCFQATHDPLTFGSGTKLEIK | binds
11-8 antibody (antibody, V domains shown, Mouse hybridoma monoclonal antibody; used as hybridoma culture supernatant; also called clone 11-8) VH: VQLQESGPELVKPGASVKISCKASGYSFTDYIILWVKQSHGKSLEWIGNINPYSGNTRYNLKFKGKATLTVDKSSSTAYMQLNSLTSEDSAVYYCARDGDDYAMDYWGQGTSVTVSS VL: DIVITQTPLSLPVSLGDQASISCRSSQSIVHSNGNTYLEWYLQKPGQSPRLLIYKVSNRFSGVPDRFSGSGSGTDFTLKISRVETEDLGVYYCFQGSHVPWTFGGGTKLEIK | binds

Results, then the binder that gave them:

binding result | Binder
binds | 32-1 antibody (antibody, V domains shown, Mouse hybridoma monoclonal antibody; used as hybridoma culture supernatant; also called clone 32-1) VH: VQLQQSGGDLVKPGGSLKLSCAASGFTFSSYGMSWVRQTPDKRLEWVATISSGGSYTYYPDSVKGRFTISRDNAKNTLYLQMSSLKSEDTAMYYCVIDYDVMDYWGQGTSVTVSS VL: DIVMTQTPSSLAVSAGEKVTMSCKSSQSLLNSRTRKNYLAWYQQKPGQSPKLLIYWASTRESGVPDRFTGSGSGTDFTLTISSVQAEDLAVYYCKQSYNLRTFGGGTKLEIK
binds | 34-4 antibody (antibody, V domains shown, Rat hybridoma monoclonal antibody; used as hybridoma culture supernatant; also called clone 34-4) VH: QVQLMESGPGLVQPSQTLSLTCTVSGFSLTSYDMHWVRQPPGKGLEWMGVIWGNGNTHYNSALKSRLSISRDTSKSQVFLKMNSLQTENTAIYFCTGGYFYWGQGVTVTVSS VL: DVVMTQTPVSLSVAIGHPASISCKSSQSLVGTGGKTYLSWLLQRPGQSPKRLIYLVSKLDSGIPDRFSGSGSETDFTLKISRVEADDLGVYYCLQGTHFPFTFGSGTQLEMK
binds | 35-9 antibody (antibody, V domains shown, Rat hybridoma monoclonal antibody; used as hybridoma culture supernatant; also called clone 35-9) VH: QVQLTESGPGLVQPSQTLSLTCTVSGFSLSSYGVIWVRQPPGKGLEWMGVIWGNGNTNYNSTLKSRLSISRDTSKSQVFLKMNILQTEDTAMYFCARWESGDYWGQGVTVTVSS VL: DVVMTQTPVSLSVAVGQPASISCTSSQSLVGSGGKTYLNWFLQRPGQSPKRLISLVSKLDSGIPDRFSGSGSETDFTLKISRVEADDLGVYYCLQGTHFPWTFGGGTKQELK
binds | 27-7 antibody (antibody, V domains shown, Rat hybridoma monoclonal antibody; used as hybridoma culture supernatant; also called clone 27-7) VH: EVQLVESGGSLVQPGGSLKLSCVASGYTFSKYWMDWVRQTPGKSLEWIGEINTDGSKTNYAPSIKDRFTISRDNAKSTLYLQMSNVKSDDTAIYYCTNWEDYWGQGVMVTVSS VL: DVVMTQTPPSLSVAIGQSVSISCKSSQSLVYSDGKTYLHWLLQSSGRSPKRLIYQVSNLDSGVPDRFSGTGSQKDFTLKISRVEAKDLGVYYCAQTTHFPYTFGAGTKLELK

Target: T2, human MEFLIN expressed on cells
Test: cell-based or functional assay

EC50 of cell proliferation inhibition (MTT test) [nM] | Binder
0.72 | ADC27-7 (other, DAR 2.4, MMAE drug-linker on cysteine thiols exposed by DTT reduction (positions not stated)) VH: EVQLVESGGSLVQPGGSLKLSCVASGYTFSKYWMDWVRQTPGKSLEWIGEINTDGSKTNYAPSIKDRFTISRDNAKSTLYLQMSNVKSDDTAIYYCTNWEDYWGQGVMVTVSS VL: DVVMTQTPPSLSVAIGQSVSISCKSSQSLVYSDGKTYLHWLLQSSGRSPKRLIYQVSNLDSGVPDRFSGTGSQKDFTLKISRVEAKDLGVYYCAQTTHFPYTFGAGTKLELK
